“Also recorded” adds a separate entry of the source. Where no end group is shown, it is not given here.
T1: AIPx5 multimer
T1 chain: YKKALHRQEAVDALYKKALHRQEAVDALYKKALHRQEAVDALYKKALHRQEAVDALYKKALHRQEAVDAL

T2: autocamtide-2-related inhibitory peptide (AIP)
T2 chain: YKKALHRQEAVDAL


Columns and labels:
CaMKIIδ = CaMKIIδ (Homo sapiens, UniProt Q13557); assay: in vitro inhibition of CaMKIIδ, bioluminescent ADP monitoring assay (ADP-GLO); format: biochemical; conditions: purified polypeptides
Description: FIG. 4 provides a schematic illustrating the design of an in vitro experiment to evaluate the impact of the purified polypeptides described in FIG. 2D and shown in the left portion of FIG. 4 on CaMKIIδ (an isomer of CaMKII) activity. Activity of CaMKIIδ was measured using a bioluminescent and homogeneous ADP monitoring assay for kinases (ADP-GLO™), which is described in Zegzouti, et al. “ADP-Glo: A Bioluminescent and Homogeneous ADP Monitoring Assay for Kinases,” ASSAY and Drug Development Technologies, December 2009, 560-572, doi.org/10.1089/adt.2009.0222, the disclosure of which is incorporated herein by reference in its entirety for all purposes.
Inhibition of CaMKIIδ activity by the polypeptides was evaluated using a bioluminescent and homogeneous ADP monitoring assay for kinases (ADP-GLO™), which is described in Zegzouti, et al. “ADP-Glo: A Bioluminescent and Homogeneous ADP Monitoring Assay for Kinases,” ASSAY and Drug Development Technologies, December 2009, 560-572, doi.org/10.1089/adt.2009.0222, the disclosure of which is incorporated herein by reference in its entirety for all purposes (FIG. 4).

LKB1 knockout mice = assay: Example 5: beat-to-beat variability (EKG) in LKB1 knockout mice (AF model); format: in vivo, mouse
From the text: Two different atrial fibrillation (AF) mouse models were used to test the efficacy of AIP×5 at treating AF of different origins. The two different AF mouse models were liver kinase B1 (LKB1) knock out mice and T-box transcription factor 5 (Tbx5) knock out mice.
LKB1-floxed or Tbx5-floxed mice were used to test the efficacy of AIP×5. AAV-NPPA-Cre was then used to conditionally knock out LKB1 or Tbx5 from the atria of the mice. NPPA is an atria specific promoter, ensuring that Cre recombinase directed knockout of LKB1 or Tbx5 was restricted to the atria. AAV-NPPA-FP (fluorescent protein) was used as a control virus. AAV-NPPA-FP has no Cre, and therefore the gene of interest is not knocked out. Uninjected mice were also included as a control to account for any effects caused by AAV injections. AAV-cTnT-AIP×5 or AAV-cTnT-CN19o were both tested as potential therapies to AF.
In short, P3 LKB1-floxed or Tbx5-floxed mice were injected (or not injected in the uninjected controls), and then EKG measurements of the mice were taken every two weeks starting at P14. At 12 weeks, the mice were sacrificed, and the sacrificed mice were tested for protein expression.
AF was calculated using the standard deviation of the beat-to-beat timing differences. A high beat-to-beat variability when sedated was indicative of atrial misfiring.
Statistical significance in the tests illustrated in FIGS. 10 and 11 was conducted using a 2-way Anova with post-hoc Dunnett's multiple comparisons to control (FP) group.

CaMKII = conditions: FIG. 2A, in vitro system of the cited papers; cited from earlier work
CaMKIIδ, Q13557 = assay: cell-based or functional assay
Sequence of CaMKIIδ, Q13557 (Q13557 whole entry, stated change not applied): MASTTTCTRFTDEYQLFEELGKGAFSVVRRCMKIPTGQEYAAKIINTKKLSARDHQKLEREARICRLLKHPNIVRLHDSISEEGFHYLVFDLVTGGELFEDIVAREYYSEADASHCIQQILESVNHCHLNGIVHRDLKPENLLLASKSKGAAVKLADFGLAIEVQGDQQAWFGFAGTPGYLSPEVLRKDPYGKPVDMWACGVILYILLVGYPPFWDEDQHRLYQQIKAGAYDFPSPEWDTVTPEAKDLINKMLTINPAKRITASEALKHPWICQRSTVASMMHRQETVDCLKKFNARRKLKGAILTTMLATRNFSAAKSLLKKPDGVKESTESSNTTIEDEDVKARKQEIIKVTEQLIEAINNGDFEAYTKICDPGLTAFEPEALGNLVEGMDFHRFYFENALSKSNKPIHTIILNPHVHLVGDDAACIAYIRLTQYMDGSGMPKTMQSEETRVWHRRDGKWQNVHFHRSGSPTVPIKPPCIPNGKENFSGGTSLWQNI

AIPx5 multimer = target: T1, AIPx5 multimer
[1] = target: T2, autocamtide-2-related inhibitory …

Sequence of CaMKIIδ (Q13557 1-478): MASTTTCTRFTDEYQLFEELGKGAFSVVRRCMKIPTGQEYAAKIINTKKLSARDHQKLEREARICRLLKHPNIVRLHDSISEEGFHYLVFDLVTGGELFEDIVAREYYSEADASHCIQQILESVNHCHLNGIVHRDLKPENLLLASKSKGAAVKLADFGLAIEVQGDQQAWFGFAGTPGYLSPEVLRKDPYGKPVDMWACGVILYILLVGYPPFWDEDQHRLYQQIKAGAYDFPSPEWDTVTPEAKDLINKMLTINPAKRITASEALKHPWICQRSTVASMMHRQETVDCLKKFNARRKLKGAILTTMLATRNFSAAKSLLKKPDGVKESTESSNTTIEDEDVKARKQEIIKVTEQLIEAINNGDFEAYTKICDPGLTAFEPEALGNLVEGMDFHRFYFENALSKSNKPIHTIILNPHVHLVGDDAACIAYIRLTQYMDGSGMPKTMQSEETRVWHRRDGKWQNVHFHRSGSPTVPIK

Row | EC50 (CaMKIIδ) [nM] | EC50 (inhibition of CaMKIIδ activity, ADP-GLO bioluminescent ADP monitoring assay) (CaMKIIδ, Q13557) [nM] | Molecule | other results
1 | 1.6 | – | KRAPKLGQIGRQKAVDIED [CN19o, reference compound] | beat-to-beat variability compared to LKB1 knockout mice alone (LKB1 knockout mice): performed worse in measures of beat-to-beat variability than LKB1 knockout mice alone; suppression of beat-to-beat variability (LKB1 knockout mice; AAV-cTnT vector, FIG. 10): did not suppress beat-to-beat variability; IC50 / potency of CaMKII inhibition compared with AIP (CaMKII): lower IC50 than AIP; also recorded: more potent inhibitor of CaMKII than AIP
2 | 2.1 | – | KRAPKLGQIGRQKAVDIEDKRAPKLGQIGRQKAVDIEDKRAPKLGQIGRQKAVDIED [CN19oX3] | –
3 | – | 2.1 | CN19oX3 multimer (peptide) peptide: KRAPKLGQIGRQKAVDIEDKRAPKLGQIGRQKAVDIEDKRAPKLGQIGRQKAVDIED | –
4 | – | 1.6 | KRAPKLGQIGRQKAVDIED [CN19o] | –
5 | – | 6150 | YKKALHRQEAVDAL [autocamtide-2-related inhibitory peptide (AIP)] | –

Continued, molecule first:

Row | Molecule | EC50 (CaMKIIδ) [nM] | EC50 (inhibition of CaMKIIδ activity, ADP-GLO bioluminescent ADP monitoring assay) (CaMKIIδ, Q13557) [nM] | other results
6 | YKKALHRQEAVDALYKKALHRQEAVDALYKKALHRQEAVDAL [AIP×3] | 543 | – | –
7 | CaMKII (endogenous, mouse heart) (protein) MATTATCTRFTDDYQLFEELGKGAFSVVRRCVKKTSTQEYAAKIINTKKLSARDHQKLEREARICRLLKHPNIVRLHDSISEEGFHYLVFDLVTGGELFEDIVAREYYSEADASHCIHQILESVNHIHQHDIVHRDLKPENLLLASKCKGAAVKLADFGLAIEVQGEQQAWFGFAGTPGYLSPEVLRKDPYGKPVDIWACGVILYILLVGYPPFWDEDQHKLYQQIKAGAYDFPSPEWDTVTPEAKNLINQMLTINPAKRITADQALKHPWQRSTVASMMHRQETVECLRKFNARRKLKGAILTTMLVSRNFSAAKSLLNKKSDGGVKKRKSSSSVHLMPQSNNKNSLVSPAQEPAPLQTAMEPQTTVVHNATDGIKGSTESCNTTTEDEDLKAAPLRTGNGSLVPEGRSPRDRTAPSAGMQPQPSLCSSAMRKQEIIKITEQLIEAINNGDFEAYTKICDPGLTSFEPEALGNLVEGMDFHKFYFENLLSKNSKPIHTTILNPHVHVIGEDAACIAYIRLTQYIDGQGRPRTSQSEETRVWHRRDGKWLNVHYHCSGAPAAPLQ | – | – | phosphorylation of phospholamban (PLB) at threonine-17 in heart tissue exposed to isoproterenol (capillary Western, pPLB/PLB) (AIPx5 multimer): contacting cells with AIP or AIP×5 resulted in a statistically significant decrease in PLB phosphorylation in cells exposed to ISO; phosphorylation of phospholamban (PLB) at threonine-17 in heart tissue exposed to isoproterenol (capillary Western, pPLB/PLB) [1]: contacting cells with AIP or AIP×5 resulted in a statistically significant decrease in PLB phosphorylation in cells exposed to ISO
8 | AIPx5 multimer (peptide) peptide: YKKALHRQEAVDALYKKALHRQEAVDALYKKALHRQEAVDALYKKALHRQEAVDALYKKALHRQEAVDAL | – | 114 | –
9 | YKKALHRQEAVDALYKKALHRQEAVDALYKKALHRQEAVDAL [AIPx3 multimer] | – | 543 | –
